Data on 4 molecules can be found in patent publication US9234036B2, “Modulation of activity of proneurotrophins” (H. Lundbeck A/S, priority 2006, dated 2016).

One assay addresses T1, pro-dom-BDNF (Homo sapiens, UniProt P23560).
T1 construct: pro-dom-BDNF (residues Ala^1-Arg^110); made in house; host or cells: E. coli BL21/DE3
T1 sequence (P23560 19-128 limits assumed): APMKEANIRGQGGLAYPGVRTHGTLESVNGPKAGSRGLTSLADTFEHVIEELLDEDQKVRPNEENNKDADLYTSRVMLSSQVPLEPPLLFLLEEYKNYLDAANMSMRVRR
Nature of the assay: SPR direct binding of sortilin peptides to immobilized pro-dom-BDNF. The conditions noted are these: for direct interaction with immobilized pro-dom-BDNF: concentration series of peptide, FIG. 18; for affinity towards pro-dom-BDNF compared with pro-dom-NGF: single peptide concentration, identical amounts of immobilized pro-dom-NGF and -BDNF. The source says:
(§1) FIG. 18: Surface plasmon resonance binding analysis of sortilin peptides to pro-dom-NGF and -BDNF. The direct interaction between sortilin peptides (as identified by SPOT analysis) and the pro-domains of NGF and BDNF was verified by surface plasmon resonance analysis using immobilized pro-dom-NGF and -BDNF. […] The numbering in this figure refers to the mature part of Sortilin.
(§2) A biosensor chip from Biacore (CM5, cat. no. BR-1000-14) was activated using the NHS/EDC method as described by supplier followed by coating with Sortilin to a protein densitiy of 79 fmol/mm2, and used for affinity measurements of the recombinant pro-domains of NGF and BDNF. Regeneration of the flow cell after each cycle of ligand binding experiment was performed by two 10 uL pulses of regeneration buffer (10 mM glycine-HCl, pH 4.0, 500 mM NaCl, 20 mM EDTA, and 0.005% Tween-20) and a single injection of 0.001% SDS. Fitting of sensorgrams for affinity estimations was performed using the Biaevaluation version 3.1. Following similar protocols, immobilization of pro-dom-NGF or pro-dom-BDNF was also performed on a CM5 biosensor chip using the NHS/EDC coupling kit according to manufactures instructions (Biacore, Sweden), giving similar surface densitites of immobilized protein (˜300 fmol/mm2). […] This chip was subsequent used to examine the binding of 390 nM wild-type Sortilin domain in CaHBS buffer at a flow of 5 uL/min, which in the absence of any competing peptide gave a ˜300 RU signal.

The target of the next assay is T2, pro-dom-NGF (Homo sapiens, UniProt P01138, A35V).
T2 construct: pro-dom-NGF (residues Glu^1-Arg^102); made in house; host or cells: E. coli BL21/DE3
T2 sequence (P01138 19-121 A35V): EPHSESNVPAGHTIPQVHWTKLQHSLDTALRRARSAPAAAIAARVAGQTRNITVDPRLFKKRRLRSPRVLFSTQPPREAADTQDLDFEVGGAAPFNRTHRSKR
Nature of the assay: SPR direct binding of sortilin peptides to immobilized pro-dom-NGF. To be noted: concentration series of peptide, FIG. 18.
Description: as §1
A biosensor chip from Biacore (CM5, cat. no. BR-1000-14) was activated using the NHS/EDC method as described by supplier followed by coating with Sortilin to a protein densitiy of 79 fmol/mm2, and used for affinity measurements of the recombinant pro-domains of NGF and BDNF. Regeneration of the flow cell after each cycle of ligand binding experiment was performed by two 10 uL pulses of regeneration buffer (10 mM glycine-HCl, pH 4.0, 500 mM NaCl, 20 mM EDTA, and 0.005% Tween-20) and a single injection of 0.001% SDS. Fitting of sensorgrams for affinity estimations was performed using the Biaevaluation version 3.1. Following similar protocols, immobilization of pro-dom-NGF or pro-dom-BDNF was also performed on a CM5 biosensor chip using the NHS/EDC coupling kit according to manufactures instructions (Biacore, Sweden), giving similar surface densitites of immobilized protein (˜300 fmol/mm2). […]

Assay [1] addresses T3, Sortilin binding to immobilized pro-dom-BDNF (Homo sapiens, UniProt P23560).
T3 construct: pro-dom-BDNF (residues Ala^1-Arg^110); made in house; host or cells: pro-dom-BDNF: E. coli BL21/DE3; Sortilin: EBNA293 cells
T3 sequence (P23560 19-128 limits assumed): T1 sequence (P23560 19-128 limits assumed)
Nature of the assay: SPR competition: Sortilin binding to immobilized pro-dom-BDNF in presence of sortilin peptide. How it is done:
FIG. 19: Surface plasmon resonance analysis of competition studies by the sortilin peptides.
as §2

In assay [2] the target is T4, p75-IgG-Fc chimeric protein (Homo sapiens, UniProt P08138).
T4 construct: purchased R&D systems (Oxon, UK)
Nature of the assay: Surface plasmon resonance (BIAcore) binding to immobilized p75-IgG-Fc. The conditions noted are these: 91.5 fmol/mm^2 immobilized p75-IgG-Fc; calculated from on and off rates. How it is done: (§3) FIG. 2: Characterization of NGF binding to p75, TrkA, and Sortilin as measured by surface plasmon resonance analysis (BIAcore). Binding of 50-500 nM NGF was measured to 91.5 fmol/mm^2 immobilized p75-IgG-Fc chimeric protein (upper panel), to 66 fmol/mm^2 immobilized TrkA-IgG-Fc (middle panel), and to 51 fmol/mm^2 purified Sortilin extracellular domain (lower panel). The on and off rates—100 to 600 seconds and 600 to 1000 seconds, respectively—were recorded and the Kd values for NGF binding were calculated to ˜1 nM for p75, ˜2 nM for TrkA, and ˜8 nM for Sortilin. […]
(§4) FIG. 3: Characterization of proNGF binding to p75, TrkA, and Sortilin as measured by surface plasmon resonance analysis (Biacore). Binding of 25-500 nM proNGF was measured to 91.5 fmol/mm^2 immobilized p75-IgG-Fc chimeric protein (upper panel), to 66 fmol/mm^2 immobilized TrkA-IgG-Fc (middle panel), and to 51 fmol/mm^2 purified Sortilin extracellular domain (lower panel). […]
(§5) FIG. 4: Characterization of binding of the proNGF propeptide to p75, TrkA, and Sortilin as measured by surface plasmon resonance analysis (Biacore). Binding of 25-500 nM propeptide was measured to 91.5 fmol/mm^2 immobilized p75-IgG-Fc chimeric protein (upper panel), to 66 fmol/mm^2 immobilized TrkA-IgG-Fc (middle panel), and to 51 fmol/mm^2 purified Sortilin extracellular domain (lower panel). […]

For assay [3], the target named is T5, proNGF binding to immobilized Sortilin (Homo sapiens, UniProt Q99523).
T5 construct: 51 fmol/mm^2 purified Sortilin extracellular domain; made in house; host or cells: Sortilin: stably transfected CHO cells; proNGF: E. coli
T5 sequence (Q99523 78-755 limits assumed): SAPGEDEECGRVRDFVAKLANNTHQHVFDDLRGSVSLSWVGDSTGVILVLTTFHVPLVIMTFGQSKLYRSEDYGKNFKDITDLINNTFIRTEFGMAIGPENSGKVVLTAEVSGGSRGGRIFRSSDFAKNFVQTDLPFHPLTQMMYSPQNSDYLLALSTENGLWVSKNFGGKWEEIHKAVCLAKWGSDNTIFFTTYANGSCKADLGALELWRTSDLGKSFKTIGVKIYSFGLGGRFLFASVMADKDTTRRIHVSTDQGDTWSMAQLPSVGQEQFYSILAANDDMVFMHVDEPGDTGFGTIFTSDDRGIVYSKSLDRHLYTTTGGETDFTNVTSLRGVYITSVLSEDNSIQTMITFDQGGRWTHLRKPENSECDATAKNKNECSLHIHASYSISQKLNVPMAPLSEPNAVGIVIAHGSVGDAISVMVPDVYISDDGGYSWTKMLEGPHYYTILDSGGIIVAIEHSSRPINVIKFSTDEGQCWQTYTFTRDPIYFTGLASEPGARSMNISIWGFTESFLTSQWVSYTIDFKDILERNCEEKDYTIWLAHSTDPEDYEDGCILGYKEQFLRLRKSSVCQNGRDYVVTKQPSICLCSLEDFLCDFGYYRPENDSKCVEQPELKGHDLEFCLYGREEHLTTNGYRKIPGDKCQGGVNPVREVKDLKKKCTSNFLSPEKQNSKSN
Nature of the assay: Inhibition of proNGF binding to immobilized Sortilin (Biacore). The conditions noted are these: 5 μM inhibitor prebound, then coinjection; 51 fmol/mm^2 Sortilin (FIG. 6). A general note: Surface plasmon resonance follows binding to a sensor surface in real time, without labels.

The target in assay [4] is T6, Sortilin extracellular domain (Homo sapiens, UniProt Q99523).
T6 construct: 51 fmol/mm^2 purified Sortilin extracellular domain; made in house; host or cells: stably transfected CHO cells
T6 sequence (Q99523 78-755 limits assumed): T5 sequence (Q99523 78-755 limits assumed)
Nature of the assay: Surface plasmon resonance (BIAcore) binding to immobilized purified Sortilin extracellular domain. The conditions noted are these: 51 fmol/mm^2 purified Sortilin extracellular domain; calculated from on and off rates. How it is done: as §3, §4, §5

The target in a further assay is T7, TrkA-IgG-Fc (Homo sapiens, UniProt P04629).
T7 construct: purchased R&D systems (Oxon, UK)
Nature of the assay: Surface plasmon resonance (BIAcore) binding to immobilized TrkA-IgG-Fc. The conditions noted are these: 66 fmol/mm^2 immobilized TrkA-IgG-Fc; calculated from on and off rates. The procedure: as §3, §4, §5

T4 sequence (P08138 with tags, fused parts or gaps limits assumed): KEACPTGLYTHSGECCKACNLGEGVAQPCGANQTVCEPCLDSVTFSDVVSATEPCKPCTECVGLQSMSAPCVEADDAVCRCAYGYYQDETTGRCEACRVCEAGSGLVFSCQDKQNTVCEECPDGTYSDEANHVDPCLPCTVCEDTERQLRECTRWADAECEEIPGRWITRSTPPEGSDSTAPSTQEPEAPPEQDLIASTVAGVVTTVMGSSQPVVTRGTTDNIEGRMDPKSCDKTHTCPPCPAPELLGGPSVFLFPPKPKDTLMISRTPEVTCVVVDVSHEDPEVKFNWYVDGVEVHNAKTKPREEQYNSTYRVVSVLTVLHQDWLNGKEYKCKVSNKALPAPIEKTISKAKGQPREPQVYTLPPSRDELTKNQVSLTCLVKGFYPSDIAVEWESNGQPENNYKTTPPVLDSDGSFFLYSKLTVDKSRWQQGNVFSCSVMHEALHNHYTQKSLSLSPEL
T7 sequence (P04629 34-407 isoform P04629-2 limits assumed): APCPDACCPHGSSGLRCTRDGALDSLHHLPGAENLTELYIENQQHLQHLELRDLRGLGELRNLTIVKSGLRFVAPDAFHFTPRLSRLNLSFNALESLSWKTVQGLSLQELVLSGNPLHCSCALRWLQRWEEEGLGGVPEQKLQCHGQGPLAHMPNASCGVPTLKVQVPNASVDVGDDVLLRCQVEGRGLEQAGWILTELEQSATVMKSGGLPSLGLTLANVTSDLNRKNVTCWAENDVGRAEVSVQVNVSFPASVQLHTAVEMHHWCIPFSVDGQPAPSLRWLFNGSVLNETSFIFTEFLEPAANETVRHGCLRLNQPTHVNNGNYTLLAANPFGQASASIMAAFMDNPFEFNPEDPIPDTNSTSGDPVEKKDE

On to RIFRSSDFAKNF (listed as Homo Sapiens), for which, in the assay with pro-dom-BDNF, the “direct interaction with immobilized pro-dom-BDNF” value was “direct binding” and the “affinity towards pro-dom-BDNF compared with pro-dom-NGF” value is on record as “higher affinity of the peptides towards BDNF than NGF”. In the assay with pro-dom-NGF, the “direct interaction with immobilized pro-dom-NGF” value is on record as “direct binding”.
“RSSDFAKNFVQTDLPF (listed as Homo Sapiens)”: in assay [1] (300 uM peptide, 390 nM wild-type Sortilin domain, CaHBS buffer), the “inhibition of Sortilin binding to immobilized pro-dom-BDNF” value is reported as approximately 66%. Besides, the “competition of sortilin binding to immobilized pro-dom-BDNF” value in assay [1] (FIG. 19, + peptide) is listed as “significantly inhibited”. Besides, in the assay with pro-dom-BDNF, the “direct interaction with immobilized pro-dom-BDNF” value is reported as “direct binding” and the “affinity towards pro-dom-BDNF compared with pro-dom-NGF” value is listed as “higher affinity of the peptides towards BDNF than NGF”. Besides, the “direct interaction with immobilized pro-dom-NGF” value in the assay with pro-dom-NGF is recorded as “direct binding”.
In the case of “proNGF: Human recombinant proNGF produced and purified in E. coli”, the Kd (in general, the equilibrium constant for the complex coming apart) in assay [2] was approximately 12 nM.

B1: proNGF propeptide: human NGF-propeptide expressed in E. coli (protein)
chain: T2 sequence (P01138 19-121 A35V)
Take B1: in assay [3], the “inhibition of binding of 200 nM proNGF to immobilized Sortilin” value is given as approximately 85%. Further, the Kd in assay [4] was approximately 8 nM. In addition, the “Kd for binding to p75” value in assay [2] is listed as “no detectable binding”. For the same molecule, in the assay with TrkA-IgG-Fc, the “Kd for binding to TrkA” value was “no detectable binding”.
